Data: article PMC9986279, “Biochemical and genetic examination of two aminotransferases from the hyperthermophilic archaeon Thermococcus kodakarensis” (Frontiers in Microbiology, 2023)

Tests used:
TK2268 protein = target: T1, TK2268 protein (Thermococcus kodakarensis, UniProt Q5JHU0); assay: aminotransferase activity with and without added PLP; format: biochemical; details: 20 μM PLP, 50 mM HEPES pH 7.4, 80°C
T1 construct: full length, C-terminal His6-tag kept, expressed in T. kodakarensis KPD2; monomer 45,116 Da; dimer (98 kDa) that may assemble to octamer (327 kDa)

TK0548 protein = target: T2, TK0548 protein (Thermococcus kodakarensis, UniProt Q5JF51); assay: as above; format: biochemical; details: 20 μM PLP, 50 mM HEPES pH 7.4, 80°C
T2 construct: full length, no tag (own stop codon in primer), pET21a(+), E. coli BL21-CodonPlus(DE3)-RIL; monomer 43,608 Da, dimer (85 kDa)
T2 sequence (Q5JF51 1-389): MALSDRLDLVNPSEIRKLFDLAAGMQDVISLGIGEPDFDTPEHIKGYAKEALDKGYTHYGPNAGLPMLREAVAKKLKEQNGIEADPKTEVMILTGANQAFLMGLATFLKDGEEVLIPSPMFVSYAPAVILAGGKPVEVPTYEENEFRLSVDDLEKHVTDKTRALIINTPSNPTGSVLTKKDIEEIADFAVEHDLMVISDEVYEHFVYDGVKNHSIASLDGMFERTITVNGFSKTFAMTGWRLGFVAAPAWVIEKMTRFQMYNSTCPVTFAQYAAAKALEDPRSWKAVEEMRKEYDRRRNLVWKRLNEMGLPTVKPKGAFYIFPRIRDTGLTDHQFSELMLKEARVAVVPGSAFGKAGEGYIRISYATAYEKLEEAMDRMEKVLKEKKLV

purified protein = substrate: N[C@@H](CC(=O)O)C(=O)O; assay: purified protein; details: 10 mM pyruvate, 20 μM PLP, 50 mM HEPES pH 7.4, 80°C
[1] = substrate: CC(=O)C(=O)O; assay: aminotransferase assay, Ala formed quantified by HPLC after o-phthalaldehyde derivatization; format: biochemical, Thermococcus kodakarensis; details: 50 mM Leu, 20 μM PLP, 50 mM HEPES pH 7.4, 80°C
From the text: (§1) aminotransferase assay, Ala formed quantified by HPLC after o-phthalaldehyde derivatization on TK2268 protein

[2] = substrate: CC(C)C[C@H](N)C(=O)O; assay: as above; format: biochemical, Thermococcus kodakarensis; details: 10 mM pyruvate, 20 μM PLP, 50 mM HEPES pH 7.4, 80°C
From the text: as §1

[3] = substrate: N[C@@H](CCC(=O)O)C(=O)O; assay: as above; format: biochemical, Thermococcus kodakarensis; details: 10 mM pyruvate, 20 μM PLP, 50 mM HEPES pH 7.4, 80°C
From the text: as §1

[4] = substrate: N[C@@H](Cc1ccc(O)cc1)C(=O)O; assay: aminotransferase assay, Glu formed quantified by HPLC after o-phthalaldehyde derivatization; format: biochemical, Thermococcus kodakarensis; details: 10 mM 2-oxoglutarate, 20 μM PLP, 50 mM HEPES pH 7.4, 80°C
From the text: (§2) aminotransferase assay, Glu formed quantified by HPLC after o-phthalaldehyde derivatization on TK2268 protein

[5] = substrate: O=C(O)CCC(=O)C(=O)O; assay: as above; format: biochemical, Thermococcus kodakarensis; details: 50 mM Leu, 20 μM PLP, 50 mM HEPES pH 7.4, 80°C
From the text: as §2

[6] = substrate: CC(=O)C(=O)O; assay: aminotransferase assay, Ala formed quantified by HPLC after o-phthalaldehyde derivatization; format: biochemical, Thermococcus kodakarensis; details: 10 mM Phe, 20 μM PLP, 50 mM HEPES pH 7.4, 80°C
From the text: aminotransferase assay, Ala formed quantified by HPLC after o-phthalaldehyde derivatization on TK0548 protein

[7] = substrate: CSCC[C@H](N)C(=O)O; assay: aminotransferase assay, Glu formed quantified by HPLC after o-phthalaldehyde derivatization; format: biochemical, Thermococcus kodakarensis; details: 10 mM 2-oxoglutarate, 20 μM PLP, 50 mM HEPES pH 7.4, 80°C
From the text: (§3) aminotransferase assay, Glu formed quantified by HPLC after o-phthalaldehyde derivatization on TK0548 protein

[8] = substrate: N[C@@H](Cc1c[nH]c2ccccc12)C(=O)O; assay: as above; format: biochemical, Thermococcus kodakarensis; details: 10 mM 2-oxoglutarate, 20 μM PLP, 50 mM HEPES pH 7.4, 80°C
From the text: as §3

[9] = substrate: N[C@@H](Cc1c[nH]cn1)C(=O)O; assay: as above; format: biochemical, Thermococcus kodakarensis; details: 10 mM 2-oxoglutarate, 20 μM PLP, 50 mM HEPES pH 7.4, 80°C
From the text: as §3

[10] = substrate: N[C@@H](Cc1ccc(O)cc1)C(=O)O; assay: as above; format: biochemical, Thermococcus kodakarensis; details: 10 mM 2-oxoglutarate, 20 μM PLP, 50 mM HEPES pH 7.4, 80°C; remark: listed apart in the source
From the text: as §3

[11] = substrate: N[C@@H](Cc1ccccc1)C(=O)O; assay: as above; format: biochemical, Thermococcus kodakarensis; details: 10 mM 2-oxoglutarate, 20 μM PLP, 50 mM HEPES pH 7.4, 80°C
From the text: as §3

[12] = substrate: O=C(O)CCC(=O)C(=O)O; assay: as above; format: biochemical, Thermococcus kodakarensis; details: 10 mM Phe, 20 μM PLP, 50 mM HEPES pH 7.4, 80°C
From the text: as §3

Q: `Cc1ncc(COP(=O)(O)O)c(C=O)c1O` [pyridoxal 5′-phosphate] was tested. Which “aminotransferase activity with and without added PLP” value (TK2268 protein) did it give?
A: suggesting that the TK0548 and TK2268 proteins are PLP-dependent aminotransferases

Q: What about the “aminotransferase activity with and without added PLP” value (TK0548 protein) of the same molecule?
A: suggesting that the TK0548 and TK2268 proteins are PLP-dependent aminotransferases

B1: TK2268 protein (Thermococcus kodakarensis KOD1) (protein)
chain: MRYKKRKYFMAGRINILQRSKIRELFEKASKMENVISLGIGEPDFDTPEVIKEAAKRAIDEGYTHYTPNAGIPEFREAIAEYYKEFYNVDVDMNNIIVTAGAYEATYLAFESILEQGDDVIIPDPAFVCYVEDAKIAEAGIIRIPLREENKFRIDPDELLEAITKRTRMIVMNYPNNPTGAIMKKDVAKAIADIAQDYNIYILSDEPYEHFLYEGARHHPMIKYAPDNTILANSFSKTFAMTGWRLGFAIAPEQVIRDMIKLHAYVIGNVTSFIQIAGITALRDKRSWEAVERMRQVYDERRKLVLKYLNDMPHITPFRPKGAFYIWAKIDPELDMTSEDFAEWLLENAGVVVIPGTAFGRQGEGWIRISYATEKEKLIEAMERMKEALSKL
notes: full length, C-terminal His6-tag kept, expressed in T. kodakarensis KPD2; monomer 45,116 Da; dimer (98 kDa) that may assemble to octamer (327 kDa)
Q: Which Km (purified protein) does the source give for B1 here?
A: 2140 ± 220 µM

Q: And the Vmax (purified protein)?
A: 5.42 µmol/min/mg

Q: And the kcat (purified protein)?
A: 4.07 s⁻¹

Q: And the kcat/Km (purified protein)?
A: 1900 M⁻¹ s⁻¹

Q: What about the Km [1] of the same molecule?
A: 2720 ± 350 µM

Q: And the Vmax [1]?
A: 3.76 µmol/min/mg

Q: And the kcat [1]?
A: 2.83 ± 0.16 s⁻¹

Q: What about the kcat/Km [1] of the same molecule?
A: 1040 M⁻¹ s⁻¹

Q: What about the Km [2] of the same molecule?
A: 36300 ± 4300 µM

Q: What about the Vmax [2] of the same molecule?
A: 4.68 µmol/min/mg

Q: What about the kcat [2] of the same molecule?
A: 3.52 ± 0.23 s⁻¹

Q: What about the kcat/Km [2] of the same molecule?
A: 100 M⁻¹ s⁻¹

Q: And the Km [3]?
A: 2170 ± 270 µM

Q: And the Vmax [3]?
A: 7.42 µmol/min/mg

Q: What about the kcat [3] of the same molecule?
A: 5.57 ± 0.23 s⁻¹

Q: And the kcat/Km [3]?
A: 2570 M⁻¹ s⁻¹

Q: What about the Km [4] of the same molecule?
A: 1450 ± 260 µM

Q: And the Vmax [4]?
A: 0.34 µmol/min/mg

Q: What about the kcat [4] of the same molecule?
A: 0.26 ± 0.02 s⁻¹

Q: What about the kcat/Km [4] of the same molecule?
A: 180 M⁻¹ s⁻¹

Q: What about the Km [5] of the same molecule?
A: 190 ± 30 µM

Q: And the Vmax [5]?
A: 4.45 µmol/min/mg

Q: What about the kcat [5] of the same molecule?
A: 3.35 ± 0.15 s⁻¹

Q: What about the kcat/Km [5] of the same molecule?
A: 17600 M⁻¹ s⁻¹

B2: TK0548 protein (Thermococcus kodakarensis KOD1) (protein)
chain: T2 sequence (Q5JF51 1-389)
notes: full length, no tag (own stop codon in primer), pET21a(+), E. coli BL21-CodonPlus(DE3)-RIL; monomer 43,608 Da, dimer (85 kDa)
Q: Which Km [6] does the source give for B2 here?
A: 48000 ± 5000 µM

Q: What about the Vmax [6] of the same molecule?
A: 137 µmol/min/mg

Q: What about the kcat [6] of the same molecule?
A: 100 ± 7 s⁻¹

Q: And the kcat/Km [6]?
A: 2070 M⁻¹ s⁻¹

Q: And the Km [7]?
A: 64000 ± 9000 µM

Q: What about the Vmax [7] of the same molecule?
A: 169 µmol/min/mg

Q: And the kcat [7]?
A: 123 ± 14 s⁻¹

Q: And the kcat/Km [7]?
A: 1920 M⁻¹ s⁻¹

Q: What about the Km [8] of the same molecule?
A: 1100 ± 100 µM

Q: And the Vmax [8]?
A: 359 µmol/min/mg

Q: What about the kcat [8] of the same molecule?
A: 261 ± 10 s⁻¹

Q: And the kcat/Km [8]?
A: 237000 M⁻¹ s⁻¹

Q: And the Km [9]?
A: 4400 ± 400 µM

Q: And the Vmax [9]?
A: 179 µmol/min/mg

Q: And the kcat [9]?
A: 130 ± 6 s⁻¹

Q: And the kcat/Km [9]?
A: 29600 M⁻¹ s⁻¹

Q: What about the Km [10] of the same molecule?
A: 1400 ± 200 µM

Q: What about the Vmax [10] of the same molecule?
A: 419 µmol/min/mg

Q: What about the kcat [10] of the same molecule?
A: 305 ± 19 s⁻¹

Q: And the kcat/Km [10]?
A: 218000 M⁻¹ s⁻¹

Q: What about the Km [11] of the same molecule?
A: 670 ± 60 µM

Q: What about the Vmax [11] of the same molecule?
A: 483 µmol/min/mg

Q: And the kcat [11]?
A: 351 ± 10 s⁻¹

Q: What about the kcat/Km [11] of the same molecule?
A: 524000 M⁻¹ s⁻¹

Q: And the Km [12]?
A: 1500 ± 200 µM

Q: What about the Vmax [12] of the same molecule?
A: 334 µmol/min/mg

Q: And the kcat [12]?
A: 243 ± 10 s⁻¹

Q: What about the kcat/Km [12] of the same molecule?
A: 162000 M⁻¹ s⁻¹
